# According to patent US20260028412A1 (PRECISION BIOSCIENCES, published 2026):
# T1: His-tagged BCMA protein (Homo sapiens (Human), UniProt Q02223 1-54)
# T1 construct: not shown: His tag
# T1 sequence: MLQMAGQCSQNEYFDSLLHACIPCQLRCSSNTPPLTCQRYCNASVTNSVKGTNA
# Experiments:
# [1] = target: human BCMA expressed on the cell surface (human) (UniProt Q02223); experiment: flow cytometry on K562-BCMA cells, goat anti-human IgG secondary
# [2] = target: His-tagged BCMA protein (Homo sapiens (Human)) (UniProt Q02223); experiment: biolayer interferometry (Octet RED96), His-tagged BCMA loaded on Anti-Penta-HIS (HIS1K) sensors, antibody as analyte at 138.9 nM
# [3] = target: His-tagged BCMA protein (Homo sapiens (Human)) (UniProt Q02223); experiment: Octet RED96, His-tagged BCMA on anti-His biosensor tips, antibody as analyte
# [4] = target: human BCMA expressed on the cell surface (human) (UniProt Q02223); experiment: flow cytometry on K562-BCMA cells, secondary antibody only
# His-tagged BCMA protein [5] = target: T1, His-tagged BCMA protein; experiment: Octet RED96, His-tagged BCMA on anti-His biosensor tips, antibody as analyte
# Experimental: (§1) Four full length antibodies were analyzed using the OctetRED96 technology for assessment of binding affinity by measurement of the equilibrium dissociation constant (KD). Within the group of four were the two candidate anti-BCMA antibodies (BCMA-3L/3H and BCMA-3L/20H), the positive anti-BCMA control described in Example 1, and the anti-CD19 negative control described in Example 1. In the experiment, His-tagged BCMA protein was loaded onto anti-His antibody coated biosensor tips and supplied antibodies were utilized as analytes to measure KD.
# His-tagged BCMA protein [6] = target: T1, His-tagged BCMA protein; experiment: biolayer interferometry (Octet RED96), His-tagged BCMA loaded on Anti-Penta-HIS (HIS1K) sensors, antibody as analyte at 138.9 nM
# Experimental: as §1
% positive cells [1] [%],Response [2],Kd (His-tagged BCMA protein [5]) [nM],koff (His-tagged BCMA protein [6]) [s⁻¹],kon (His-tagged BCMA protein [6]) [M⁻¹ s⁻¹],Molecule,also measured
1.2,0.0032,,,,full-length human IgG4 antibody expressing the anti-CD19 targeting moiety FMC63,
10.1,2.31,,,,positive control IgG4 anti-BCMA antibody (comprising the VH and VL regions of the C11D5.3 antibody described in WO 2010/104949),Kd [3]: < 0.001 nM; koff [2]: < 1e-07 s⁻¹; kon [2]: 236000 M⁻¹ s⁻¹
,,,,,goat anti-human IgG secondary antibody,% positive cells [4]: 0.18%
,,1.38,0.000333,242000,"BCMA-3L/3H full-length IgG4 antibody (antibody, V domains shown, also called BCMA-3L/3H full length antibody) VH: QIQLVQSGPELKKPGETVKISCKASGYTFTHYSINWVKRAPGKGLKWMGWINTESGEPTYAYDFKGRFAFSLETSASTAYLQINNLKYEDTATYFCALDYESAMDYWGQGTSVTVSS VL: DIVLTQSPPSLAMSLGKRATISCRASESVTIPGQHLINWYQQKPGQPPKLLIQRASNVESGVPARFSGSGSRTDFTLTIDPVEEDDVAVYYCLQTRGIPRTFGGGTKLEIKR",
,,2.14,0.000458,214000,"BCMA-3L/20H full-length IgG4 antibody (antibody, V domains shown, also called BCMA-3L/20H full length antibody; BCMA-3L/20H antibody clone) VH: QIQLVQSGPELKKPGETVKISCKASGYTFTHYSINWVKRAPGKGLKWMGWINTETRESTYAYDFKGRFAFSLETSASTAYLQINNLKYEDTATYFCALDYKQAMDYWGQGTSVTVSS VL: DIVLTQSPPSLAMSLGKRATISCRASESVTIPGQHLINWYQQKPGQPPKLLIQRASNVESGVPARFSGSGSRTDFTLTIDPVEEDDVAVYYCLQTRGIPRTFGGGTKLEIKR",
